Reference: PMC8484605, “A complex of BRCA2 and PP2A-B56 is required for DNA repair by homologous recombination” (Nature Communications, 2021)
Square brackets hold non-standard residues; d marks the D form. Ends that are not written are not given here. pT = C[C@@H](OP(=O)(O)O)[C@H](N)C(=O)O; pS = N[C@@H](COP(=O)(O)O)C(=O)O

What was measured:
[1] = biological target: T1, B56α (Homo sapiens, UniProt Q15172); test: isothermal titration calorimetry; settings: reference: unphosphorylated peptide
[2] = system: U2OS Flp-In T-REx cells; test: Colony formation assay: CPT sensitivity; format: cell-based, human
Protocol: For transient protein expression, cells were transfected with Lipofectamine 2000 (Invitrogen) and the plasmid of interest and incubated for 48 h unless otherwise stated. For BRCA2 knockdown, cells were transfected twice with 10 nM Silencer Select BRCA2 s2084 siRNA and 10 nM Silencer Select BRCA2 s2085 siRNA (Ambion) using Lipofectamine RNAiMAX (Invitrogen) 24 and 48 h before the experiment. A luciferase oligo ([NT], Sigma) was used for control (Ctrl). U2OS Flp-In T-REx parental cells or stably expressing siRNA-resistant venus-MBP-BRCA2 constructs were transfected with Ctrl or BRCA2 siRNA as described above. […] Reseeding was performed by trypsinizing the cells, dissolving into growth medium, and counting the number of cells using the Scepter Cell Counter (Merck), followed by seeding a known number of cells into six-well plates containing growth medium. After 11 days, the cells were fixed and stained in 0.5% methylviolet, 25% methanol. The plates were scanned on a GelCount (Oxford Optronix), and the number of colonies were quantified using the GelCount software (version 1.3.04). The plating efficiency (%) for each well was calculated as the number of colonies divided by the number of cells seeded times 100. The surviving fraction for each dose of drug was calculated by normalizing the plating efficiency to that of the unperturbed condition. […]

[3] = system: BRCA2 pT1104/pS1106 and pT1128; test: Western blot of BRCA2 phosphorylation in BRCA2 immunoprecipitates; format: cell-based, human; settings: U2OS Flp-In T-REx, S-phase, released 1 h, 2 μM CPT for 1 h
Protocol: For immunoprecipitations of endogenous BRCA2, U2OS Flp-In T-REx cells were synchronized to S-phase as described above, released for 1 h, and treated for 1 h with 2 μM CPT in presence or absence of 25 μM KU55933 (ATM kinase inhibitor) and 5 μM AZ20 (ATR kinase inhibitor). Cells were lysed in RIPA buffer, and proteins were immunoprecipitated on BRCA2 antibody-conjugated (Millipore Cat# OP95, RRID:AB_2067762) Rec-protein G Sepharose 4B beads (Invitrogen) for 1 h at 4 °C and washed in RIPA buffer prior to elution.
All buffers were supplemented with 1 mM DTT, Complete protease inhibitor cocktail (Roche), and PhosSTOP phosphatase inhibitor cocktail (Roche). For λ phosphatase treatment experiments, immunoprecipitants on beads were washed in buffer without phosphatase inhibitor and incubated with λ phosphatase (Sigma–Aldrich) in the applied buffer for 20 min at 30 °C before elution. Immunoprecipitants were eluted in 2× NuPage LDS sample buffer (Invitrogen). Whole-cell extracts and immunoprecipitations were analyzed by SDS-PAGE and western blotting or mass spectrometry analysis. For western blotting, samples were boiled for 5 min in NuPage LDS sample buffer and run on NuPage Bis-Tris 4–12% protein gels (Invitrogen), and proteins were transferred to PVDF membranes (Immobilon-FL, Merck). […] Quantification of western blots were carried out in ImageStudioLite (version 5.2.5., LI-COR). […]

[4] = biological target: T1, B56α; test: Isothermal titration calorimetry (ITC) of BRCA2 peptides binding to B56α; design: His; made in house; host or cells: E. coli BL21 Rosetta2 (DE3) R3 T1; settings: ITC at 25 °C; 50 mM sodium phosphate pH 7.5, 150 mM NaCl, 0.5 mM TCEP; peptide titrated into B56α; single-site model; error = standard error of the fitting; performed once
Protocol: Both recombinant B56α and synthetic BRCA2 peptides were extensively dialyzed prior to ITC experiments against the ITC buffer (50 mM sodium phosphate pH 7.5, 150 mM NaCl, 0.5 mM TCEP). All experiments were performed on a MicroCal Auto-iTC200 (Malvern Panalytical) instrument at 25 °C (Auto-iTC200 version 1.1.1.0, iTC200 version 1.26.4, Origin version 7.0552 SR4). Both peptide and B56α concentrations were determined using a spectrophotometer by measuring the absorbance at 280 nm and applying values for the extinction coefficients as computed from the corresponding sequences by the ProtParam program (http://web.expasy.org/protparam/). The BRCA2 peptides were loaded into the syringe and titrated into the calorimetric cell containing B56α. The reference cell was filled with distilled water. Control experiments with the peptides injected in the sample cell filled with buffer were carried out under the same experimental conditions. […] The titration sequence consisted of a single 0.4 μl injection followed by 19 injections, 2 μl each, with 150 s spacing between injections to ensure that the thermal power returns to the baseline before the next injection. The stirring speed was 750 rpm. […] Data were analysed with MicroCal PEAQ-ITC analysis software (version 1.1.0.1262., Malvern Panalytical).

[5] = system: U2OS Flp-In T-REx cells; test: Colony formation assay: MMC sensitivity; format: cell-based, human
Protocol: For transient protein expression, cells were transfected with Lipofectamine 2000 (Invitrogen) and the plasmid of interest and incubated for 48 h unless otherwise stated. For BRCA2 knockdown, cells were transfected twice with 10 nM Silencer Select BRCA2 s2084 siRNA and 10 nM Silencer Select BRCA2 s2085 siRNA (Ambion) using Lipofectamine RNAiMAX (Invitrogen) 24 and 48 h before the experiment. A luciferase oligo (5′-[sequence]dTdT-3′, Sigma) was used for control (Ctrl).
U2OS Flp-In T-REx parental cells or stably expressing siRNA-resistant venus-MBP-BRCA2 constructs were transfected with Ctrl or BRCA2 siRNA as described above. Then, cells were either treated with 0, 3, or 10 ng/mL Mitomycin C for 24 h followed by reseeding into normal growth medium or reseeded directly and either treated for 24 h with 0, 5, or 15 nM CPT or continuously maintained in medium containing 0, 5.6, 16.7, or 50 nM Olaparib. […] The plates were scanned on a GelCount (Oxford Optronix), and the number of colonies were quantified using the GelCount software (version 1.3.04). The plating efficiency (%) for each well was calculated as the number of colonies divided by the number of cells seeded times 100. The surviving fraction for each dose of drug was calculated by normalizing the plating efficiency to that of the unperturbed condition. […]

[6] = system: U2OS Flp-In T-REx cells; test: Colony formation assay: Olaparib sensitivity; format: cell-based, human
Protocol: For transient protein expression, cells were transfected with Lipofectamine 2000 (Invitrogen) and the plasmid of interest and incubated for 48 h unless otherwise stated. For BRCA2 knockdown, cells were transfected twice with 10 nM Silencer Select BRCA2 s2084 siRNA and 10 nM Silencer Select BRCA2 s2085 siRNA (Ambion) using Lipofectamine RNAiMAX (Invitrogen) 24 and 48 h before the experiment. A luciferase oligo ([NT], Sigma) was used for control (Ctrl). U2OS Flp-In T-REx parental cells or stably expressing siRNA-resistant venus-MBP-BRCA2 constructs were transfected with Ctrl or BRCA2 siRNA as described above. […] Reseeding was performed by trypsinizing the cells, dissolving into growth medium, and counting the number of cells using the Scepter Cell Counter (Merck), followed by seeding a known number of cells into six-well plates containing growth medium. After 11 days, the cells were fixed and stained in 0.5% methylviolet, 25% methanol. The plates were scanned on a GelCount (Oxford Optronix), and the number of colonies were quantified using the GelCount software (version 1.3.04). The plating efficiency (%) for each well was calculated as the number of colonies divided by the number of cells seeded times 100. The surviving fraction for each dose of drug was calculated by normalizing the plating efficiency to that of the unperturbed condition. The plating efficiency data of Figs. 2, 3, and Supplementary Fig. 3 is derived from the unperturbed condition of the MMC sensitivity dataset, and the plating efficiency data of Fig. 4 is derived from the unperturbed condition of the Olaparib sensitivity dataset. Graphs were constructed in PRISM, and one-way ANOVA analyses with Dunnett's multiple comparison tests were performed comparing the mean of each condition to the siBRCA2 + WT condition. Exact p values are provided in the source data.

[7] = biological target: T2, His-tagged B56α (UniProt Q15172 1-486); test: ITC; BRCA2 peptide in the syringe titrated into B56α in the cell; 25 °C; 50 mM sodium phosphate pH 7.5, 150 mM NaCl, 0.5 mM TCEP; single-site model; settings: both partners purified
T2 construct: source: E. coli BL21 Rosetta2 (DE3) R3 T1, purified (Ni column, Superdex 200)
T2 sequence (Q15172 whole entry): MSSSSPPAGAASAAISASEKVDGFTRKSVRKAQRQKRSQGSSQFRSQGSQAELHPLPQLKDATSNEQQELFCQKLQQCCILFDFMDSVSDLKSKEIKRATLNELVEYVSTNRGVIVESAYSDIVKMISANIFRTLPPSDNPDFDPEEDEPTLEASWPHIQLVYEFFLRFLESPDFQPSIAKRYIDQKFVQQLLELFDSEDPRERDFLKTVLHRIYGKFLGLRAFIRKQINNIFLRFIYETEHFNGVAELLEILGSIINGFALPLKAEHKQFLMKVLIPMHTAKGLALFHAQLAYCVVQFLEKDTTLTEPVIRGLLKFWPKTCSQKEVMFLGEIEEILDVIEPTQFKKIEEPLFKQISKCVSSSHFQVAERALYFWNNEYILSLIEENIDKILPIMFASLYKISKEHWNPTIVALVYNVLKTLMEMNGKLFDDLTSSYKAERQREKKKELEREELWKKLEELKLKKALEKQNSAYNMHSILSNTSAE

[8] = BRCA2 depletion (siBRCA2) vs siCtrl
[9] = cells expressing BRCA2 3AQ compared to BRCA2 WT

T1 sequence (Q15172 whole entry): as above

Kd [7] | stoichiometry N [7] | Molecule | other results
 |  | BRCA2 (from UniProt P51587) doubly phosphorylated pS1123/pT1128 peptide | fold change ([1]; sites S1123,T1128): stronger
 |  | BRCA2 (from UniProt P51587) pS1123 peptide | fold change ([1]; sites S1123): stronger
 |  | CC[C@@]1(O)C(=O)OCc2c1cc1n(c2=O)Cc2cc3ccccc3nc2-1 [Camptothecin, camptothecin] | CPT sensitivity [2, 8]: hypersensitivity; CPT sensitivity [2, 9]: hypersensitivity; phosphorylation of BRCA2 T1104/S1106 and T1128 [3]: stimulated
 |  | WKAEITEASTALEESGSQFE [BRCA2^1108-1126 2A, synthetic BRCA2 peptide 1108-1126 with L1114A-I1117A] | KD [4]: No binding
 |  | BRCA2 (from UniProt P51587) pS1106 peptide | binding against the reference ([1]; sites S1106): weaker
 |  | BRCA2 (from UniProt P51587) pT1128 peptide (printed once as S1128) | fold change ([1]; sites T1128): stronger
 |  | CO[C@@]12[C@H](COC(N)=O)C3=C(C(=O)C(C)=C(N)C3=O)N1C[C@@H]1N[C@@H]12 [MMC, Mitomycin C] | MMC sensitivity [5, 8]: hypersensitivity; MMC sensitivity ([5]; cells expressing BRCA2 3AQ or 3DQ compared to BRCA2 WT): hypersensitivity
 |  | O=C(c1cc(Cc2n[nH]c(=O)c3ccccc23)ccc1F)N1CCN(C(=O)C2CC2)CC1 [Olaparib] | Olaparib sensitivity [6, 8]: hypersensitivity; Olaparib sensitivity [6, 9]: hypersensitivity; Olaparib sensitivity ([6]; cells expressing BRCA2 S1106R, T1116P or T1128I compared to BRCA2 WT): mild sensitivity
1.38 µM | 0.94 | WELSTILEESGSQFEF[pT]Q (tryptophan at the N-terminus, outside the stated BRCA2 limits; human BRCA2, residues 1113-1129, T1128 phosphorylated; source: synthetic peptide (Peptide 2.0 Inc.)) [BRCA2 1113-1129 pT1128 peptide] | 
0.77 µM | 0.92 | WELSTILEESG[pS]QFEFTQ (tryptophan at the N-terminus, outside the stated BRCA2 limits; human BRCA2, residues 1113-1129, S1123 phosphorylated; source: synthetic peptide (Peptide 2.0 Inc.)) [BRCA2 1113-1129 pS1123 peptide] | 
3.75 µM | 0.86 | PDQKAEITELSTILEESGDQFEFDQW (human BRCA2, residues 1105-1129 with the three SQ/TQ sites changed to DQ (phosphomimetic); tryptophan at the C-terminus, outside the stated BRCA2 limits; source: synthetic peptide (Peptide 2.0 Inc.)) [BRCA2 1105-1129 3DQ peptide] | 
5.17 µM | 1.02 | WKAEITELSTILEESGSQFE (tryptophan at the N-terminus, outside the stated BRCA2 limits; human BRCA2, residues 1108-1126 with the LxxIxE motif; The added W probably serves the A280 concentration measurement; also called BRCA2^1108-1126 WT; source: synthetic peptide (Peptide 2.0 Inc.)) [BRCA2 1108-1126 peptide] | 
7.76 µM | 0.99 | PSQKAEITELSTILEESGSQFEFTQW (human BRCA2, residues 1105-1129; tryptophan at the C-terminus, outside the stated BRCA2 limits; also called BRCA2^1105-1129 WT; source: synthetic peptide (Peptide 2.0 Inc.)) [BRCA2 1105-1129 peptide] | 
7.43 µM | 1.01 | PSQKAEITELSTILEESGSQFEFIQW (human BRCA2, residues 1105-1129 with the missense variant T1128I reported in individuals (ClinVar); tryptophan at the C-terminus, outside the stated BRCA2 limits; also called c.3383 C > T; source: synthetic peptide (Peptide 2.0 Inc.)) [BRCA2 1105-1129 T1128I peptide] | 
6.92 µM | 0.85 | PSQKAEITELSPILEESGSQFEFTQW (human BRCA2, residues 1105-1129 with the missense variant T1116P reported in individuals (ClinVar); tryptophan at the C-terminus, outside the stated BRCA2 limits; also called c.3346 A > C; source: synthetic peptide (Peptide 2.0 Inc.)) [BRCA2 1105-1129 T1116P peptide] | 
2.93 µM | 0.95 | PRQKAEITELSTILEESGSQFEFTQW (human BRCA2, residues 1105-1129 with the missense variant S1106R reported in individuals (ClinVar); tryptophan at the C-terminus, outside the stated BRCA2 limits; also called c.3318 C > G; source: synthetic peptide (Peptide 2.0 Inc.)) [BRCA2 1105-1129 S1106R peptide] | 
3.82 µM | 1.01 | WELSTILEESGSQFEFTQ (tryptophan at the N-terminus, outside the stated BRCA2 limits; human BRCA2, residues 1113-1129; source: synthetic peptide (Peptide 2.0 Inc.)) [BRCA2 1113-1129 peptide] | 
0.48 µM | 0.91 | WELSTILEESG[pS]QFEF[pT]Q (tryptophan at the N-terminus, outside the stated BRCA2 limits; human BRCA2, residues 1113-1129, S1123 and T1128 phosphorylated; also called double phosphorylated peptide; source: synthetic peptide (Peptide 2.0 Inc.)) [BRCA2 1113-1129 pS1123, pT1128 peptide] | 
